Experimental findings from article PMC3146575 are described below.

For data set [1], the target named is T1, hOGG1 K249Q (catalytically inactive) (human, UniProt O15527 1-345, K249Q). The experiment in a line: EMSA. Background: A gel shift assay detects complexes by their altered migration in electrophoresis.
Data set [2] has as its target T1, hOGG1 K249Q (catalytically inactive). The experiment in a line: EMSA. This is another data set of the same source.

T1 sequence (O15527 whole entry K249Q): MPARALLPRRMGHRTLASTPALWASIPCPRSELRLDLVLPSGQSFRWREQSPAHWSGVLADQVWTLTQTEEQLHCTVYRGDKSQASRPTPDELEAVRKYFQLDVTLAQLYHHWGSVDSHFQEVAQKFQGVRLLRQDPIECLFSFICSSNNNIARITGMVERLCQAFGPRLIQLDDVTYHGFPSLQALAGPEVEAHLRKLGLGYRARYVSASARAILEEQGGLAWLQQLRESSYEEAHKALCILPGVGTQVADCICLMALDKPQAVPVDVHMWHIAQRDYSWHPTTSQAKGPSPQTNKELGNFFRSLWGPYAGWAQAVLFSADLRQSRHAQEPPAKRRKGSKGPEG

With CAGCAGCAGCAGCAGCAGCAGCAGCAGCAG (structured_DNA, 8-oxoG in 2nd CAG repeat (G6)) [Stem-HP], in data set [1], the binding result is given as “no binding”.

B1: Stem-DUP (dsDNA)
DNA 1: CAGCAGCAGCAGCAGCAGCAGCAGCAGCAG
DNA 2: CTGCTGCTGCTGCTGCTGCTGCTGCTGCTG
modifications: 8-oxoG in 2nd CAG repeat (G6 of strand 1)
The term Kd denotes the free concentration of one partner at which half of the binding sites on the other are occupied at equilibrium, for simple one-to-one binding. A higher Kd goes with weaker binding. On to B1, for which the Kd in data set [2] was determined as 21.7 ± 6.8 nM. As to CAGCAGCAGCAGCAGCAGCAGCAGCAGCAG (structured_DNA, 8-oxoG in 5th CAG repeat (G15)) [Loop-HP], the binding result in data set [1] is given as “no binding”.
